The labels stand for the following.
B1: APBB1IP (parent)
chain: PPEPLSQVSMWDQRWQDHQPLLPI

From the supplement of paper PMC10567573 come the findings set out here.
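Also: lentivirally expressed fusions sorted by FACS into six bins by GFP to DsRed ratio, PSI derived from sequencing read proportions per bin multiplied by bin number.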

Variants of B1 are the subject of the data set. Put plainly: protein stability index of a GFP-peptide fusion (GPS, HEK-293T) (PSI 1-6); higher = more stable. To be noted: c terminus: a fixed tail appended.
In the case of PPEPLSQVSMWDQRLQDHQPLLPI [W15L], the protein stability index was 3.28. PPEPLSQVSMWDQREQDHQPLLPI [W15E]: the protein stability index stood at 4.03. As for PPEPLSQVSMWDQRMQDHQPLLPI [W15M], the protein stability index was 4.02. With PPEPLSQVSMWDQRHQDHQPLLPI [W15H], the protein stability index stood at 4.17. Take PPEPLSQVSMWDQRGQDHQPLLPI [W15G]: the protein stability index is 3.62. On to PPEPLSQVSMWDQRCQDHQPLLPI [W15C], for which the protein stability index was determined as 3.39. Under PPEPLSQVSMWDQRKQDHQPLLPI [W15K] stands 4.05.

For the variant PPEPLSQVSMWDQRVQDHQPLLPI [W15V], the protein stability index worked out at 3.93. In the case of FPEPLSQVSMWDQRWQDHQPLLPI [P1F], the protein stability index was determined as 2.17. In the case of DPEPLSQVSMWDQRWQDHQPLLPI [P1D] it was 3.31; in that of EPEPLSQVSMWDQRWQDHQPLLPI [P1E], 2.84; in that of TPEPLSQVSMWDQRWQDHQPLLPI [P1T], 3.37. WPEPLSQVSMWDQRWQDHQPLLPI [P1W]: the protein stability index turned out to be 2.48. Take APEPLSQVSMWDQRWQDHQPLLPI [P1A]: the protein stability index was determined as 2.64. In the case of SPEPLSQVSMWDQRWQDHQPLLPI [P1S] it was 2.87. Under YPEPLSQVSMWDQRWQDHQPLLPI [P1Y] stands 1.72. Under MPEPLSQVSMWDQRWQDHQPLLPI [P1M] stands 3.28; under PIEPLSQVSMWDQRWQDHQPLLPI [P2I], 2.42; under PEEPLSQVSMWDQRWQDHQPLLPI [P2E], 3.02. As to PCEPLSQVSMWDQRWQDHQPLLPI [P2C], the protein stability index was 2.44. In the case of PTEPLSQVSMWDQRWQDHQPLLPI [P2T], the protein stability index worked out at 2.69.

Regarding PMEPLSQVSMWDQRWQDHQPLLPI [P2M], the protein stability index stood at 2.38. In the case of PGEPLSQVSMWDQRWQDHQPLLPI [P2G], the protein stability index was 2.58. Under PFEPLSQVSMWDQRWQDHQPLLPI [P2F] stands 1.92; under PAEPLSQVSMWDQRWQDHQPLLPI [P2A], 2.71; under PLEPLSQVSMWDQRWQDHQPLLPI [P2L], 2.09. For the variant PPEPLVQVSMWDQRWQDHQPLLPI [S6V], the protein stability index turned out to be 2.73.

Regarding PPEPLAQVSMWDQRWQDHQPLLPI [S6A], the protein stability index is 3.09. Turning to PPEPLMQVSMWDQRWQDHQPLLPI [S6M], the protein stability index was 2.82. In the case of PPEPLSQVSMWDQRWQDHVPLLPI [Q19V] it was 2.33. As to PPEPLSQVSMWDQRWQDHSPLLPI [Q19S], the protein stability index stood at 2.31.

PPEPLSQVSMWDQRWQDHPPLLPI [Q19P]: the protein stability index turned out to be 2.63. Under PPEPLSQVSMWDQRWQDHTPLLPI [Q19T] stands 3.02; under PPEPLSQVSMWDQRWQDHHPLLPI [Q19H], 2.48; under PPEPLSQVSMWDQRWQDHNPLLPI [Q19N], 3.

For the variant PPEPLSQVSMWDQRWQDHRPLLPI [Q19R], the protein stability index was found to be 3. PPEPLSQVKMWDQRWQDHQPLLPI [S9K]: the protein stability index was determined as 3.09. In the case of PPEPLSQVCMWDQRWQDHQPLLPI [S9C] it was 2.34; in that of PPEPLSQVFMWDQRWQDHQPLLPI [S9F], 2.95. For PPEPLSQVTMWDQRWQDHQPLLPI [S9T], the protein stability index was 2.99.

On to PPEPLSQVYMWDQRWQDHQPLLPI [S9Y], for which the protein stability index is 2.57. Regarding PPEPLSQVWMWDQRWQDHQPLLPI [S9W], the protein stability index was found to be 2.62. Under PPEPLSQVIMWDQRWQDHQPLLPI [S9I] stands 2.86. In the case of PPEPLSQVSLWDQRWQDHQPLLPI [M10L], the protein stability index turned out to be 3.16.

For the variant PPEPLSQVSIWDQRWQDHQPLLPI [M10I], the protein stability index amounted to 2.79. Under PPEPLSQVSDWDQRWQDHQPLLPI [M10D] stands 4.12; under PPEPLSQVSYWDQRWQDHQPLLPI [M10Y], 2.51; under PPEPLSQVSWWDQRWQDHQPLLPI [M10W], 3.12.

As for PPEPLSQVSGWDQRWQDHQPLLPI [M10G], the protein stability index stood at 3.3. In the case of PPEPLSQVSCWDQRWQDHQPLLPI [M10C] it was 3.52; in that of PPEPLSQVSTWDQRWQDHQPLLPI [M10T], 2.87. With PPEPLSQVSMWDQRWQDHQPLLPS [I24S], the protein stability index was 3.55. In the case of PPEPLSQVSMWDQRWQDHQPLLPE [I24E] it was 3.26; in that of PPEPLSQVSMWDQRWQDHQPLLPA [I24A], 3.26; in that of PPEPLSQVSMWDQRWQDHQPLLPK [I24K], 3.92. Under PPEPLSQVSMWDQRWQDHQPLLPH [I24H] stands 3.58; under PPEPLSQVSMWDQRWQDHQPLLPN [I24N], 3.12. As for PPEPLSQVSMWDQRWQDHQPLLPT [I24T], the protein stability index amounted to 3.62. Under PPEPLSQVSMWDQRWQDHQPLLPW [I24W] stands 2.04; under PPEPLSQVSMWDQRWQDHQPLLPR [I24R], 3.12; under PPEPLSQVSMWDQRWQDHQPLLPP [I24P], 3.79.

Regarding PPEPLSQVSMWDQRWADHQPLLPI [Q16A], the protein stability index was determined as 2.23. In the case of PPEPLSQVSMWDQRWRDHQPLLPI [Q16R] it was 2.68. In the case of PPEPLSQVSMWDQRWVDHQPLLPI [Q16V] it was 2.7; in that of PPEPLSQVSMWDQRWHDHQPLLPI [Q16H], 2.53. In the case of PPEPLSQVSMWDQRWIDHQPLLPI [Q16I], the protein stability index stood at 2.72.

For the variant PPEPLSQVSMWDQRWSDHQPLLPI [Q16S], the protein stability index came to 2.61. Under PPEPLSQVSMWDQRWNDHQPLLPI [Q16N] stands 2.85; under PPEPLSPVSMWDQRWQDHQPLLPI [Q7P], 3.25; under PPEPLSHVSMWDQRWQDHQPLLPI [Q7H], 3.61. Under PPEPLSSVSMWDQRWQDHQPLLPI [Q7S] stands 2.81; under PPEPLSIVSMWDQRWQDHQPLLPI [Q7I], 3.07. For the variant PPEPLSEVSMWDQRWQDHQPLLPI [Q7E], the protein stability index is 3.56. Under PPEPLSMVSMWDQRWQDHQPLLPI [Q7M] stands 2.74; under PPEPLSVVSMWDQRWQDHQPLLPI [Q7V], 3.33.

In the case of PPEPLSQKSMWDQRWQDHQPLLPI [V8K], the protein stability index was 3.25. For the variant PPEPLSQESMWDQRWQDHQPLLPI [V8E], the protein stability index came out at 3.48. Under PPEPLSQDSMWDQRWQDHQPLLPI [V8D] stands 4.03. Consider PPEPLSQPSMWDQRWQDHQPLLPI [V8P], for which the protein stability index came to 3.12.

As to PPEPLSQYSMWDQRWQDHQPLLPI [V8Y], the protein stability index stood at 2.57. In the case of PPEPLSQVSMWDQRWQDHQPQLPI [L21Q] it was 3.68. In the case of PPEPLSQVSMWDQRWQDHQPNLPI [L21N], the protein stability index was determined as 3.88. As to PPEPLSQVSMWDQRWQDHQPILPI [L21I], the protein stability index worked out at 2.58. Regarding PPEPLSQVSMWDQRWQDHQPSLPI [L21S], the protein stability index stood at 3.26. Consider PPEPLSQVSMWDQRWQDHQPRLPI [L21R], for which the protein stability index was determined as 3.58.

PPQPLSQVSMWDQRWQDHQPLLPI [E3Q]: the protein stability index amounted to 2.77. Under PPWPLSQVSMWDQRWQDHQPLLPI [E3W] stands 2.32; under PPVPLSQVSMWDQRWQDHQPLLPI [E3V], 3.46; under PPYPLSQVSMWDQRWQDHQPLLPI [E3Y], 2.27. Take PPHPLSQVSMWDQRWQDHQPLLPI [E3H]: the protein stability index came out at 2.74.

For PPLPLSQVSMWDQRWQDHQPLLPI [E3L], the protein stability index came out at 3.07. PPNPLSQVSMWDQRWQDHQPLLPI [E3N]: the protein stability index was 3.56.

PPMPLSQVSMWDQRWQDHQPLLPI [E3M]: the protein stability index came out at 2.94. Consider PPFPLSQVSMWDQRWQDHQPLLPI [E3F], for which the protein stability index is 2.4.
